Data reported in US20250043019A1 (Janssen / Centocor, published 2025).

T1: human CD79b on the cell surface (human, UniProt P40259 29-229)
T1 sequence: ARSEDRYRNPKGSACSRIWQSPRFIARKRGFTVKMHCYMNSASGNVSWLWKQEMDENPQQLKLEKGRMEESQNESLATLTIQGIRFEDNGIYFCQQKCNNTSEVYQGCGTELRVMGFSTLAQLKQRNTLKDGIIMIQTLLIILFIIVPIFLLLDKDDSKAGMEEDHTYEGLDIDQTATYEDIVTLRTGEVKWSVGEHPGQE

T2: human CD79b and CD20 co-expressed on the surface of B-lymphoma cell lines or primary B cells (human, UniProt P11836 1-297)
T2 sequence 1: T1 sequence
T2 sequence 2: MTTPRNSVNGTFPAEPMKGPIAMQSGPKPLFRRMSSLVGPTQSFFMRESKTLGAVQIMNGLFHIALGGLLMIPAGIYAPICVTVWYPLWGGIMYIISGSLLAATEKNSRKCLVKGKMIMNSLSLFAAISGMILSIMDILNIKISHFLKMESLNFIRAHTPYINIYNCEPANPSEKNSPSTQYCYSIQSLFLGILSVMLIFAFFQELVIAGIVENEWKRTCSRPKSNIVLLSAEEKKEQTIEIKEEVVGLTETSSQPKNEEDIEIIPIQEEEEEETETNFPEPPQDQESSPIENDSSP

B1: 79C3B645 CD79bxCD3 bispecific antibody (bispecific antibody, human IgG1, lambda, L234A L235A)
heavy: QVQLQQSGPGLVKPSQTLSLTCAISGDSVSSNSATWNWIRQSPSRGLEWLGRTYYRSKWYNDYTVSVKSRITINPDTSKNQFSLQLNSVTPEDTAVYYCTRVDIAFDYWGQGTLVTVSSASTKGPSVFPLAPSSKSTSGGTAALGCLVKDYFPEPVTVSWNSGALTSGVHTFPAVLQSSGLYSLSSVVTVPSSSLGTQTYICNVNHKPSNTKVDKKVEPKSCDKTHTCPPCPAPEAAGGPSVFLFPPKPKDTLMISRTPEVTCVVVSVSHEDPEVKFNWYVDGVEVHNAKTKPREEQYNSTYRVVSVLTVLHQDWLNGKEYKCKVSNKALPAPIEKTISKAKGQPREPQVYTLPPSREEMTKNQVSLSCAVKGFYPSDIAVEWESNGQPENNYKTTPPVLDSDGSFFLVSKLTVDKSRWQQGNVFSCSVMHEALHNRFTQKSLSLSPGK
light: QTVVTQPPSVSEAPRQRVTISCSGSSSNIGNHGVNWYQQLPGKAPKLLIYNDDLLPSGVSDRFSGSTSGTSGSLAISGLQSEDEADYYCAAWDDSLNGVVFGGGTKLTVLGQPKAAPSVTLFPPSSEELQANKATLVCLISDFYPGAVTVAWKADSSPVKAGVETTTPSKQSNNKYAASSYLSLTPEQWKSHRSYSCQVTHEGSTVEKTVAPTECS
chain: EIVLTQSPATLSASPGERVTLSCSASSSVSYMNWYQQKPGQAPRRWIYDSSKLASGVPARFSGSGSGRDYTLTISSLEPEDFAVYYCQQWSRNPPTFGGGTKVEIKGGSEGKSSGSGSESKSTGGSQVQLVQSGAEVKKPGSSVKVSCKASGYTFTRSTMHWVRQAPGQGLEWMGYINPSSAYTNYAQKFQGRVTLTADKSTSTAYMELSSLRSEDTAVYYCASPQVHYDYGGFPYWGQGTLVTVSSEPKSSDKTHTCPPCPAPEAAGGPSVFLFPPKPKDTLMISRTPEVTCVVVSVSHEDPEVKFNWYVDGVEVHNAKTKPREEQYNSTYRVVSVLTVLHQDWLNGKEYKCKVSNKALPAPIEKTISKAKGQPREPQVYTLPPSREEMTKNQVSLWCLVKGFYPSDIAVEWESNGQPENNYKTTPPVLDSDGSFFLYSKLTVDKSRWQQGNVFSCSVMHEALHNHYTQKSLSLSPGK
B2: C923B95 CD79bxCD20xCD3 trispecific antibody (other)
heavy: QVQLQESGPGLVKPSQTLSLTCTVSGVSISNYYWSWIRQPPGKGLEWIGRISPSGRTNYNPSLKSRVTMSLDASKNQFSLKLSSVTAADTAVYYCARGEYSGTYSYSFDIWGQGTMVTVSSASTKGPSVFPLAPSSKSTSGGTAALGCLVKDYFPEPVTVSWNSGALTSGVHTFPAVLQSSGLYSLSSVVTVPSSSLGTQTYICNVNHKPSNTKVDKKVEPKSCDKTHTCPPCPAPEAAGGPSVFLFPPKPKDTLMISRTPEVTCVVVSVSHEDPEVKFNWYVDGVEVHNAKTKPREEQYNSTYRVVSVLTVLHQDWLNGKEYKCKVSNKALPAPIEKTISKAKGQPREPQVYTLPPSREEMTKNQVSLSCAVKGFYPSDIAVEWESNGQPENNYKTTPPVLDSDGSFFLVSKLTVDKSRWQQGNVFSCSVMHEALHNRFTQKSLSLSPGK
light: DIQMTQSPSSLSASVGDRVTITCRSSQSLFDSDDGNTYLDWFQQKPGQSPKLLIQTLSYRASGVPSRFSGSGSGTDFTLTISSLQPEDFATYYCMQRMEFPLTFGGGTKVEIKRTVAAPSVFIFPPSDEQLKSGTASVVCLLNNFYPREAKVQWKVDNALQSGNSQESVTEQDSKDSTYSLSSTLTLSKADYEKHKVYACEVTHQGLSSPVTKSFNRGEC
chain: EIVLTQSPATLSASPGERVTLSCSASSSVSYMNWYQQKPGQAPRRWIYDSSKLASGVPARFSGSGSGRDYTLTISSLEPEDFAVYYCQQWSRNPPTFGGGTKVEIKGGSEGKSSGSGSESKSTGGSQVQLVQSGAEVKKPGSSVKVSCKASGYTFTRSTMHWVRQAPGQGLEWMGYINPSSAYTNYAQKFQGRVTLTADKSTSTAYMELSSLRSEDTAVYYCASPQVHYDYGGFPYWGQGTLVTVSSEPKSSDKTHTCPPCPAPEAAGGPSVFLFPPKPKDTLMISRTPEVTCVVVSVSHEDPEVKFNWYVDGVEVHNAKTKPREEQYNSTYRVVSVLTVLHQDWLNGKEYKCKVSNKALPAPIEKTISKAKGQPREPQVYTLPPSREEMTKNQVSLWCLVKGFYPSDIAVEWESNGQPENNYKTTPPVLDSDGSFFLYSKLTVDKSRWQQGNVFSCSVMHEALHNHYTQKSLSLSPGKGGSEGKSSGSGSESKSTGGSAIQLTQSPSSLSASVGDRVTITCRASSSVSYIHWFQQKPGKAPKPLIYATSNLASGVPSRFSGSGSGTDFTLTISSLQPEDFATYYCQQWTSNPPTFGQGTKLEIKGGSEGKSSGSGSESKSTGGSQVQLVQSGAEVKKPGSSVKVSCKASGYTFTSYNMHWVRQAPGQGLEWMGAIYPGNGDTSYAQKFQGRVTITADKSTSTAYMELSSLRSEDTAVYYCARSTYYGGDWYFNVWGQGTLVTVSS
B3: C923B73 CD79bxCD20xCD3 trispecific antibody (other)
heavy: B1 heavy
light: B1 light
chain: B2 chain
B4: 79C3B605 CD79bxCD3 bispecific antibody (bispecific antibody, human IgG1, kappa, L234A L235A)
heavy: QVQLQESGPGLVKPSETLSLTCSVSGASISSFYWSWIRQPADEGLEWIGRISPSGKTNYIPSLKSRIIMSLDASKNQFSLRLNSVTAADTAMYYCARGEYSGTYSYSFDVWGQGTMVTVSSASTKGPSVFPLAPSSKSTSGGTAALGCLVKDYFPEPVTVSWNSGALTSGVHTFPAVLQSSGLYSLSSVVTVPSSSLGTQTYICNVNHKPSNTKVDKKVEPKSCDKTHTCPPCPAPEAAGGPSVFLFPPKPKDTLMISRTPEVTCVVVSVSHEDPEVKFNWYVDGVEVHNAKTKPREEQYNSTYRVVSVLTVLHQDWLNGKEYKCKVSNKALPAPIEKTISKAKGQPREPQVYTLPPSREEMTKNQVSLSCAVKGFYPSDIAVEWESNGQPENNYKTTPPVLDSDGSFFLVSKLTVDKSRWQQGNVFSCSVMHEALHNRFTQKSLSLSPGK
light: DIVMTQSPLSLSVTPGEPASISCRSSESLLDSEDGNTYLDWFLQKPGQSPQLLIYTLSYRASGVPDRFSGSGSDTDFTLHISSLEAEDVGLYYCMQRMEFPLTFGQGTKVEIKRTVAAPSVFIFPPSDEQLKSGTASVVCLLNNFYPREAKVQWKVDNALQSGNSQESVTEQDSKDSTYSLSSTLTLSKADYEKHKVYACEVTHQGLSSPVTKSFNRGEC
chain: B1 chain
B5: C923B36 CD79bxCD20xCD3 trispecific antibody (other)
heavy: B4 heavy
light: B4 light
chain: B2 chain
B6: 79C3B650 CD79bxCD3 bispecific antibody (bispecific antibody, human IgG1, kappa, L234A L235A)
heavy: B2 heavy
light: B2 light
chain: B1 chain

What was measured:
Assay in all cases: cell-based or functional assay
[1] = biological target: T1, human CD79b on the cell surface
[2] = biological target: T1, human CD79b on the cell surface; remark: listed apart in the source
[3] = biological target: T2, human CD79b and CD20 co-expressed on …
[4] = biological target: T2, human CD79b and CD20 co-expressed on …; remark: listed apart in the source

Binder	IC50, T-cell killing of OCI-Ly10 (Incucyte) [1] [nM]	IC50, T-cell killing of HBL-1 (Incucyte) [2] [nM]	IC50, T-cell killing of OCI-Ly10 (Incucyte) [3] [nM]	IC50, T-cell killing of HBL-1 (Incucyte) [4] [nM]
B1	18	7.19	–	–
B2	–	–	14.8	4.89
B3	–	–	132	6.8
B4	54.3	29.5	–	–
B5	–	–	42	31
B6	7	43.3	–	–
